# According to article PMC5548924, “The N-Terminal Region of Fibrillin-1 Mediates a Bipartite Interaction with LTBP1” (Structure(London, England:1993), 2017):
# B1: LTBP1^E3cbEGF15 (LTBP1 EGF3-cbEGF15) (domain or fragment)
# chain: QAEECGILNGCENGRCVRVQEGYTCDCFDGYHLDTAKMTCVDVNECDELNNRMSLCKNAKCINTDGSYKCLCLPGYVPSDKPNYCT
# B2: LTBP1^TB3E3 (LTBP1 TB3-EGF3) (domain or fragment)
# chain: IRPAESNEQIEETDVYQDLCWEHLSDEYVCSRPLVGKQTTYTECCCLYGEAWGMQCALCPLKDSDDYAQLCNIPVTGRRQPYGRDALVDFSEQYTPEADPYFIQDRFLNSFEELQAEECGILNGCENGRCVRVQEGYTCDCFDGYHLDTAKMTCV
# B3: LTBP1^cbEGF14TB3 (LTBP1 cbEGF14-TB3) (domain or fragment)
# chain: MDECQDPSSCIDGQCVNTEGSYNCFCTHPMVLDASEKRCIRPAESNEQIEETDVYQDLCWEHLSDEYVCSRPLVGKQTTYTECCCLYGEAWGMQCALCPLKDSDDYAQLCNIPVTGRRQPY
# modifications: Ca2+-bound cbEGF14; disulfide-bonded (refolded); limits run from the start of cbEGF14 to just after the last Cys of TB3 by convention, exact construct ends not given; vector-derived N-terminal …
# Biological target: T1, FBN1^E2cbEGF1 (fibrillin-1 EGF2-EGF3-Hyb1-cbEGF1) (human, UniProt P35555 113-287, C204 replaced with a serine)
# T1 construct: fibrillin-1 (FBN1), human, domains EGF2-EGF3-Hyb1-cbEGF1; His6 tag, Ser-Ala spacer and factor Xa site (Ile-Glu-Gly-Arg) at the N-terminus, tag removed with factor Xa; 15N-labelled in some NMR titrations; Construct described in Robertson et al., 2013b; also called FBN1 EGF2-EGF3-Hyb1-cbEGF1; four-domain FBN1 fragment; not shown: His6, N-terminal, cleaved
# T1 sequence (P35555 other isoform, or with tags, fused parts or gaps C204 replaced with a serine | C204 replaced with a serine): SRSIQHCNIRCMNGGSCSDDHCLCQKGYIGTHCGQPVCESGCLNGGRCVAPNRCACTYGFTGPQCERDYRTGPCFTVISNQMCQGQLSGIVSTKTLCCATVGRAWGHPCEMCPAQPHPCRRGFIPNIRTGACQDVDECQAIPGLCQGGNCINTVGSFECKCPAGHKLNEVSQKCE
# Assay: SPR; Biacore T100; FBN1 fragments amine-coupled to a CM5 chip (1000 RU each flow cell), LTBP1 fragments as analytes; 50 mM Tris pH 7.5, 150 mM NaCl, 0.05% Tween 20, 2 mM CaCl2; 25°C; multi-cycle and single-cycle; Kd estimated from Scatchard plots
# Conditions: both partners purified
row,Kd [µM],Binder
1,~100,B1
2,0.5 to 1,B2
3,~300,B3
